In US20240327500A1:

Target: HBV virions (Genotype D) (Hepatitis B virus genotype D)
Assay: cell-based or functional assay

neutralization at 0.03 µg/ml, in-vitro assay: 29%
Substance: HBC34 (antibody)
